# From the DeepSol protein solubility set
# Assay: soluble on expression in E. coli; label from the status in PepcDB or PDB records
row,Sequence,soluble on expression in E. coli
1,MRVMAFVQARMGSTRLPGKSLMPVWNGMGVLEMTLRRALRARTLSGVVLCTSTDPACDALETLASGLGVQAFRGPEDDVLTRYALATERFEPDAVVRICADSPLVCPEGIDALVAFFRDEGLDYAAHAMDGTGLPDGLGCEVFTAAALAQAHAEATAPEDREHVSLFIRHRPERFRQATLAADAALRAPGVSLDVDTQDDLDALRRFIMALPPSEGPFWSADAIAPLARGLHTPPQGTSMDIASDDYHDFFIRDGKLIGEFEQMYRKSRHAPWHQDEACDKWFNKVSAALVGHALDDPSVRTVFEVGSGLGYFLSQFAGEGRTLTGTDVSATAVEKARALFPGISFEVDDIRFEGRRGPYDLCLMQAVCWCIFPHMDDVVRNVTATVRPGGYLFLGECFQPLDGPFAGKDVIPTPDALIGHFSHAFDTVADVRVTRGEMGGGPIIYWLGRRRGLEHHHHHH,soluble
2,MYINNKLTEDLLLGEIYYLISKTYFFIENIQKAINFAFLAKSEFEKVYNKKAYAKSLELLAEEHAKVGDLESAIAYSKQSLNVYKELEQLDKISSIEDSLGKLFFEFDNIEESFEHYNRAIKIREENTDSKLLDTLFNLCENHIKTKNMNKCIEILNEIKNKLNVSDVNRLIEYKILTFRIEVLQNNIKEAENILLDTLEIAKRNDMKKKEADISIRLGKFYLELKRDYEAAKYLDKGINNLKNLGVIKSLEHHHHHH,not soluble
3,MGSDKIHHHHHHMGMQARYDGVAVCAPITVPYVRFSPESAHWWTGAALRALGQKTGLNAGDIDGFCFASFSSAPDTVVGMVQHLGLSPRWMDHIPTGGASGIMALRRAARAVQCGDAEVVACVAADTNQIDSYRQTLAGFSRFSQDATYPYGFGGPNATFALITDNFMRQFGTTRETFGKLCVAQRENALSNPLALMKKPLTIEHYMNARPISDPVHLFDCVMPCAGAEAFLVTTPDKAEQLGLSTARILSTIERHNAFADDTVQFRGGWERDQEALWDRAGCGPGDVQCVQVYDDYPVIVAMQLADLGFCSKPGLNDFIAANEFTISGSLPLNTNGGQLSAGQAGAAGGFQNVTEGLRQILQCPLGEQVSDAHRALVSGFGLVNYDRGTCTGAAVLQREALR,not soluble
4,MVNFKDKSMPTAIEKALDFIGGMNTSASVPHSMDESTAKGILKYLHDLGVPVSPEVVVARGEQEGWNPEFTKKVAGWAEKVASGNRILIKNPEYFSTYMQEQLKELVLEHHHHHH,soluble
5,MSSGSSNFLLVPIPEYPVLDCVPNKNVKIVVLGASNVGKTALIVRFLTKRFIGDYEANTGALYSRKINLDGEQVSLQVQDTPCVSLQDDADGLYCQEQINRSITGRTVMCSSSPSLTSTATAPSSLSTNMCAESTPAVTSLSSSWETRATFCEPDRSQIPKGRRWRMNWEGYTLRLRPGRTTRASRQLFCTYVRR,not soluble
6,MGSDKIHHHHHHMTDEGALFYEHSRRALSEIQNAAALLDQRKINATGRLRMSVPVLFGQLFAAPLMVKFAQQHADLQLEISFNDRNVDLIEEGFDLCIRIGALPDTTQLVAKPIGEHRMLLCASPDYLNKAGPVEHIEDLDQHATIADPHFGQMQKWRLQKENDEPLFIKPKAKLLLNDLQAIKNAALAGAGIAWLPDWLIQNELQDGKLVQVLDAMSSTAFPIHLVWPTLPFMPLKTRLAIDYLAQHLPPELNK,not soluble
7,QVQLQQSGAELMKPGASVKISCKATGYTFSSFWIEWVKQRPGHGLEWIGEILPGSGGTHYNEKFKGKATFTADKSSNTAYMQLSSLTSEDSAVYYCARGHSYYFYDGDYWGQGTSVTVSSASTKGPSVFPLAPSSKSTSGGTAALGCLVKDYFPEPVTVSWNSGALTSGVHTFPAVLQSSGLYSLSSVVTVPSSSLGTQTYICNVNHKPSNTKVDKKVEPK,soluble
8,MPNYLENVKDAAAIIASARRIMVVGCSGGGKSTLSQKLAAAFGLRYISMDRDIFWLPGWQLRPREEQRQRIAAVVTEDRWLMDGSNPSSFDLRLPRTDIVLWVRMPRWLCLWGAVSRIVKGYGKARPEMAAGCPERIDLDFLRYIWNFERRHTPVFEESFALHGPNVPIFQLKSRKQIRRLLDLLVVEDLEHHHHHH,soluble
9,MSLSLPRWKQIVHMLYLKMEFISGGELGEALAVNPRTIRNDIKVINQILMIGGNRIESLPGVGYRLVIGDEKALREALLDDSIGRANMNIVPMFAEDRADYIIRYLLLKNDYVKLETLSEELFVSKSTINLDILEVKRKLKENELKVEKRAGYGIRITGAELAIRFCFSRYLLVESTSPLITETEINFFGEVNLEMMEQIVVSNIAKYNIHMTDISVKNLIIHIAIAVCRVKDNCYVPATDLEDIEFSMPELRAAQGIIKEIDLSEGIRFPESETAYLLLHLSSKNRKSDFNNYREYIIVDKMLEKIKELYGYDFKQDQKMISNIALHLKPAINRIKFNMNIQNPYLKNLKANYPLAFELGLVAKEVLEQELKTNVDEAEVGYLAIHFLYGLDKEEGHHHHHH,soluble
10,MSQQEISIINLDQLVSMTSVEIAELTGKEHKHVLRDIRNMVEELNGAKTEHCSTLSSELNGSKFGLVGEEVYKDAKGESRTMYRLDRKHTFILVAGYSVHLRAKCYDHIQTLERRVLQLEDQKKRAAIQSANRRGVTWGDYCKTYGLPAQKLMTALLQHRGLFRKNPISNEWSVNPKYSDCFRIIKPSDQKFSAGGYNFRFNAKGLEVFGKPEMVDKMRGILIAFTGTDQQKQEHLLKLAQSGKVEGI,not soluble
11,MGSDKIHHHHHHMQHIIKTALQQTFNYKTNKSIYNILVGKKSHQTFFDACSQQQLSLYHSLPLLKYPSFELFLEKINEFNAEMEIMLHPRYTFESMGQTFQAIQLLVQTMSNTKQHVFHFVPISQNNKIQETVKIVYNYIKENQLQIDFENELHNLFKAITLKGPCYLHYYLQGYDEPMYTRQQVSLIEKLSQQQLFEYEMNNLVTMMFELESGEYTILSKIIMKPTLLNQTYITYTKLLEQFTMEDIAAQQQVKINTIEDHVLEILIKGYMSNYDDYVELEDQLQFLNFYQQHRGERLKFYKEQFDTLSYFQLKVLIVGFERGDLNVA,not soluble
12,MGSDKIHHHHHHMIEMTRMAACAAVHHDTQATQTGAAYAPAEQGGEPRESSASAYFWVGIDAGGSHCRALLTDDSGQVLGHGVAGPANPVNGVSQSQAAIMSAIDKALGAARLDKQYHRLIVGAGLAGLHLPKMQQVMNEWAHPFAAWHTTTDLHVAALGAHQGADGGVIILGTGFSSLANVKGQQILIGGHGFPINATCSGSWFGLEAVKAVLLDADGIGPGTSLTGKLLQGTNAMALAEQLMHANATDFARFAPQVFEQAGAGDAVSLSLIEQGATFINGVIRRLLATGIDSLSLVGGIAPLMQPWLAPDLSTRIRTAKASPEEGAILFARQCHVGNSRIQER,not soluble
13,MGSDKIHHHHHHMWIWQQADWPKFHWNTSSIDALLRQVYFNQGQLLGKQMLSHDDSLLTSDAALDTLLANIIHSSAIEGEKLNAASVRSSLAKKLGVTEDKPYPTTAQTDGLADIMLDALKNLETELTLERILGWHQQLFPQGYTLFNPVIGGTLRGDTPMQVVSGRIDKPTVHFEAPSRATLDAELSQFIEWFNASRQDLGLDPLIRAAITHLWFVTLHPLDDGNGRITRLLTDLALAQAEKRSIRFYAMSVSILARRQAYYDILESTQRGDVDITPWLVWFFETLNDCLLNAMADVSRTLSKTQYWQSVDQSLLSQEQAKVLNRMLDGDFELGINSSQYQKVAKVSRATATRHLAQMVEQRFLVKADAGGRSTRYLLPSGK,not soluble
14,MSLSTGTMTLHRRLQVEYGLYQDRGRRPTMEDAHTVVSSLPIPQLEEQDEGNTTVSLFAIMDGHCGDSASYYSAAQLASKVSECWPCCMTTSSIVSSLHNAHILMDAQFLEIARSSNILAGCTCLSTVIVTEAHRIRIFTANLGDSRAILCRHGAFSAWLKFSPPSAAAEANANRLNLISFFPGSRLVIPLSLDQKPNISPDRERIEAAGAFTYPSLIKYKDKIAIRGPHRIFPGGLAVPRAIGDLPYKDMTYLNSLGVSAPLVSSDPVISIYDLTEQDEFILQACDGLWDVISSKEAAIFASVMHYIHQLARMPHKAFKKLRRPLKQILFKMGVTSYYSPTSVAVAEALCNHAKLRGSQDNVTVSVIFPEFIKSEGHHHHHH,not soluble
15,MEFKNTKKDRLSDLENRFENANKHETNKHEKEDRKKAHTLYISEKVMNSVEEYLNEFGAFRENKSVFVQDAIIFYLEYKKKEMKQMLLDKASKL,not soluble
16,MGSDKIHHHHHHMHLTQSTISQQLARLEESVGHSLIDRTARPLQLTASGEYLIGYAQRILTLQQEAEAVLKDPAGSIPIRIGLPEDMMSTAMAEVFGLFAQEHRTIRLDVTSGLSRNLTERYRNGELDIVIVKESAASADCYASFPEEMAWFESENAITPLSEPIRLVTFPQGGLYRDEMFETLERERRRWYIAFTGSSLESVLVSVETGLGISLLPVSTTKGRRVRRYKSLGEASPMVVSIYTWEKAGLISQLVDHMTTVLHDRFQSGS,not soluble
17,MADTRPERRFTRIDRLPPYVFNITAELKMAARRRGEDIIDFSMGNPDGATPPHIVEKLCTVAQRPDTHGYSTSRGIPRLRRAISRWYQDRYDVEIDPESEAIVTIGSKEGLAHLMLATLDHGDTVLVPNPSYPIHIYGAVIAGAQVRSVPLVEGVDFFNELERAIRESYPKPKMMILGFPSNPTAQCVELEFFEKVVALAKRYDVLVVHDLAYADIVYDGWKAPSIMQVPGARDVAVEFFTLSKSYNMAGWRIGFMVGNKTLVSALARIKSYHDYGTFTPLQVAAIAALEGDQQCVRDIAEQYKRRRDVLVKGLHEAGWMVEMPKASMYVWAKIPEPYAAMGSLEFAKKLLNEAKVCVSPGIGFGDYGDTHVRFALIENRDRIRQAIRGIKAMFRADGLLPASSKHIHENAE,soluble
18,IALGGGAAKGFAHIGVLKMLEANGLAPSVVAGTSAGSVVGALYASGMDSFKIQTKAVAMDESNIRDLRFFSGGLVQGQKLQNYVNELVGKRPIEKLNMPFGAIATRLEDGQRTMFVRGNVGEAVRASCSIPGVFEPVTIGAYHYVDGGITSPVPV,not soluble
19,KVGILQFVTHDALDQIEKGIEDGLKEAGYKGDKVQITLLNAEGDQSKIQTMSKQLVNDKNDVVIGIATPAAQGLAAATKDIPVIMGAISDPVGAKLVKNLKHPEGNVTGTSNQVPIKQTVELVKSLTPNAKTIGILYASSEDNSQSQVESFKKYAEQDGLNVIEYAVPSTNEINTTMSVMTGKVDAIWTPQDNTIASSFSTVISLANQAKIPVYTTVDTMVKEGGLASVAQNQYELGKATARSAIKVLKGKKVKDIPVDVIDDGTPTLNLKVARDLNITIPDDVLKQSDIAVKADK,not soluble
20,MKHICLYFQIHQPFRLKRYRFFDIGNDHYYYDDFRNEEIMRRITQKCYLPANLLLKEIIAEHPEFRVAFSISGTALEQLESYSPEALDTFRDLAETGCVEFLAETYAHSLSSLYDPEEFYNQTMIHSRRMEELFGVKPRVLRNTELIFSDNIATQVAEMGFQGMLTEGAKHILGWKSPNYLYKAGSAPELSLLLRNPRLSDAISAMFTRYDWNEYPLTADKMIRWIEETPEEEQIFNLFMNYEVLGSLHPQESGIFDFFRALPSLAKKSEGVKFATPSELIESSSPVAKFSSIYPISWVGEEKDTGTWLGNVLQQGACDKLEQWGERVRMIDDQRMLQDWLYLQSADHFYYMKTRGGDAGNFSPYETPYDAFNNYMNVLSDFLLRVEARYPSTIENEELKALLTTIRNQDKQIKKLEETIKRQKTKTT,not soluble
21,MAHHHHHHMNCPIVLKTLEQNKNFCVINPEAMDSCIYISLDYFKENLITSCTHKKPLPHTCNVKNEISGIKNLKTEQIELNEFIQEYYKRLIINDDEIMWNVCYFRKSKEFLTILLLEFLKSMLTVLNKYNGKCIFKKTEYLVNCGHHITHRIWIQMFYEYGFESVDADTKKNMKNYPIIQQEDGNNRTLYLTIADHYKWDA,not soluble
22,CIGLVNPKTPENVGSVMRAAGCYGVNSVFYTGKRYDIAKQFCTDTKSQHLNLPLIGVEDLRDIVPLDCVPVAVDLIEGAKPLPDYKHPPRAFYIFGPEDGTLKKEITDFCRETIYVPTNGCMNLAAAVNVIMYDRMAK,not soluble
